Source: US20120114667A1 (AstraZeneca / MedImmune, published 2012)

Experiments:
[1] = target: T1, β1 integrin chain on HT29 cells (α5 null line) (human, UniProt P05556 21-798); assay: FACS on HT29 cells (no α5, β1 present)
T1 construct: whole, on cells; β1 is paired with alpha chains other than α5 on these cells; also called β1 chain; beta1
Method: To confirm the antibodies bind to the α5 chain or to the α5β1 heterodimer, binding to Human colon adenocarcinoma grade II cells (HT29 cells) was assessed by FACS. […] HT-29 cells were suspended in HBSS with 1% BSA and 1 mM final MnCL₂ at a concentration of 6×10⁵ cells/ml.12.5 uL of the primary antibody was added to 37.5 ul of cells and the plate incubated on ice for 60 minutes. A range of negative controls were included as described previously (indicated as below). In addition as a positive control antibodies to αvβ6 (Mab2077, Chemicon), α5β1 (Mab1909, Chemicon) and av (L230, Chemicon) were included. 100 uL of HBSS buffer was added to dilute primary antibody, the cells pelleted by centrifuging at 1500 rpm for 3 minutes and resuspended in 50 ul Goat anti-human IgG Fc Cy5 or Goat anti Mouse IgG Fc Cy5 secondary at 2 ug/mL. They were then incubated on ice for a further 7 minutes, and 100 uL of HBSS buffer was added to dilute secondary antibody. Finally cells were pelleted by centrifuging at 1500 rpm for 3 minutes, HBSS Buffer/secondary supernatant removed, washed twice in 100 ul of FACS buffer was added and the cells were resuspended and then read on a FACS Calibur HTS. Samples were analyzed using Cell Quest Pro software. The data is represented in Table 6 and confirm that the antibodies are selective for α5β1.

human α5β1 integrin [2] = target: T2, human α5β1 integrin (human, UniProt P08648 42-1049; P05556 21-798); assay: cell-based or functional assay
T2 sequence (P08648 42-1049, chain 1 of 2): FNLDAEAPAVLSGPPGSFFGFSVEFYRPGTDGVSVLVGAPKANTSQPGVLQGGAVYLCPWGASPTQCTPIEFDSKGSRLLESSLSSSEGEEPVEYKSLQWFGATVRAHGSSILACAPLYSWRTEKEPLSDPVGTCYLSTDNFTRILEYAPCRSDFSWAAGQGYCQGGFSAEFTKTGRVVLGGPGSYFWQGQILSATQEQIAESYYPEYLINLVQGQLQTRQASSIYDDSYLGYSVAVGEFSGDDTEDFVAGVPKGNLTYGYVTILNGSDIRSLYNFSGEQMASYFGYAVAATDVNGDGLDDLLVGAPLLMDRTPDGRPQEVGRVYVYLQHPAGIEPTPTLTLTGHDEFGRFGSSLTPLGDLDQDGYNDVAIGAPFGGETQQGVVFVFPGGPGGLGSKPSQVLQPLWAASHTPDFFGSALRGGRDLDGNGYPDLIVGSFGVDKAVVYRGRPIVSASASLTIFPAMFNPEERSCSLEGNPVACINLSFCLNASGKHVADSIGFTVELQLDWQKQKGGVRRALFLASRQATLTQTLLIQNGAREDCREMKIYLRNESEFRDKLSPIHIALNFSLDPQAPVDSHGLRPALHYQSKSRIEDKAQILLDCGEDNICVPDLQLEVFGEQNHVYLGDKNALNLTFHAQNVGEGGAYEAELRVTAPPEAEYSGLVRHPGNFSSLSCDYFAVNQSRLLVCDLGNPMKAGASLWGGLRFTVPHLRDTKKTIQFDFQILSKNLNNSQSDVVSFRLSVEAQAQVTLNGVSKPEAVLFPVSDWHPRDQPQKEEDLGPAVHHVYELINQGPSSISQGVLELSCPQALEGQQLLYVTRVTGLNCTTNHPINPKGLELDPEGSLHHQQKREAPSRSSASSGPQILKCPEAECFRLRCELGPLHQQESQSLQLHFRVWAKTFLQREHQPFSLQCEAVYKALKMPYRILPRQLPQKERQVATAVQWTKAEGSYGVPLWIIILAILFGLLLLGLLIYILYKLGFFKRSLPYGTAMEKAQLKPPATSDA
T2 sequence (P05556 21-798, chain 2 of 2): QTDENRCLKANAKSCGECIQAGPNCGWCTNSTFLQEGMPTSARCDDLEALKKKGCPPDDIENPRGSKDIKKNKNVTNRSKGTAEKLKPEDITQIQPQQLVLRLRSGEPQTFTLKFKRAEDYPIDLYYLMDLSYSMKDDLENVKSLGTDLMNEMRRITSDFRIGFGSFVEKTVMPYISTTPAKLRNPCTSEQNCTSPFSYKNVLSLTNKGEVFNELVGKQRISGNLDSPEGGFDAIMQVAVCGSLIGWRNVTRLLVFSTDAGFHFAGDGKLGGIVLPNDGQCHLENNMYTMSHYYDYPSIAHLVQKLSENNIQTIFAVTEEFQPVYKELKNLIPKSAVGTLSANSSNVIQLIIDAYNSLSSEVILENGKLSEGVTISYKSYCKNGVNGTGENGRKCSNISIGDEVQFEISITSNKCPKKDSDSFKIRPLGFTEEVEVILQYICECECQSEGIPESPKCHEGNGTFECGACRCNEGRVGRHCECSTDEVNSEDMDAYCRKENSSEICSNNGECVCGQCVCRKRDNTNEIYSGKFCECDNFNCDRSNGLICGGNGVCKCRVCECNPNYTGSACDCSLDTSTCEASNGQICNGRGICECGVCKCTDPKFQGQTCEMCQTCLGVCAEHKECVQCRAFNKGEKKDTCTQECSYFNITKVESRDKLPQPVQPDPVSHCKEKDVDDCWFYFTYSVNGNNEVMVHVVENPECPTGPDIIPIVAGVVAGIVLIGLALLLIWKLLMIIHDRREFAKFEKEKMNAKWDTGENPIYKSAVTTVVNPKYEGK

human α5β1 integrin [3] = target: T2, human α5β1 integrin; assay: FACS-based KD titration on K562 cells, 4 C, 5 h, 1 mM MgCl2 and 1 mM CaCl2
Method: To assess the affinity of the antibodies for α5β1, a FACS based KD analysis was employed. […] K562 cells expressing α5β1 were resuspended in filtered HBS buffer containing 1 mM MgCl₂ and 1 mM CaCl₂ at a concentration of approximately 2.5-6 million cells/mL. The cells were kept on ice. Serially diluted (2×) mAbs across 11 wells in a 96-well plate. All mAbs were diluted in HBS described above. Additional HBS and cells were added to each well so that the final volume was 300 μL/well and each well contained approximately 140,000-150,000 cells. The final molecular concentration range for each mAb was 3C5: 3.8 nM -7.5 μM; 5B11: 3.8 nM-7.3 μM. Cells were incubated on a plate shaker for 5 hours at 4° C. and then were spun/washed 3× at 4° C. with HBS. […] The Mean Fluorescence (F) of 7000 “events” was determined using FACS Canto II HTS flow cytometry instrumentation. To calculate affinity, data was fitted nonlinearly to a plot of the Mean Fluorescence as a function of molecular mAb concentration with Scientist 3.0 software using the equation:
In this equation, F=mean fluorescence, LT=total molecular mAb concentration, P′=proportionality constant that relates arbitrary fluorescence units to bound mAb, M=cellular concentration in molarity, n=number of receptors per cell, B=background signal, and KD=equilibrium dissociation constant. […]

human α5β1 integrin [4] = target: T2, human α5β1 integrin; assay: cell-based or functional assay; remark: listed apart in the source
[5] = target: T3, α4β1 integrin on J6.77 Jurkat cells (UniProt P13612 34-1032; P05556 21-798); assay: cell-based or functional assay
T3 sequence (P13612 34-1032, chain 1 of 2): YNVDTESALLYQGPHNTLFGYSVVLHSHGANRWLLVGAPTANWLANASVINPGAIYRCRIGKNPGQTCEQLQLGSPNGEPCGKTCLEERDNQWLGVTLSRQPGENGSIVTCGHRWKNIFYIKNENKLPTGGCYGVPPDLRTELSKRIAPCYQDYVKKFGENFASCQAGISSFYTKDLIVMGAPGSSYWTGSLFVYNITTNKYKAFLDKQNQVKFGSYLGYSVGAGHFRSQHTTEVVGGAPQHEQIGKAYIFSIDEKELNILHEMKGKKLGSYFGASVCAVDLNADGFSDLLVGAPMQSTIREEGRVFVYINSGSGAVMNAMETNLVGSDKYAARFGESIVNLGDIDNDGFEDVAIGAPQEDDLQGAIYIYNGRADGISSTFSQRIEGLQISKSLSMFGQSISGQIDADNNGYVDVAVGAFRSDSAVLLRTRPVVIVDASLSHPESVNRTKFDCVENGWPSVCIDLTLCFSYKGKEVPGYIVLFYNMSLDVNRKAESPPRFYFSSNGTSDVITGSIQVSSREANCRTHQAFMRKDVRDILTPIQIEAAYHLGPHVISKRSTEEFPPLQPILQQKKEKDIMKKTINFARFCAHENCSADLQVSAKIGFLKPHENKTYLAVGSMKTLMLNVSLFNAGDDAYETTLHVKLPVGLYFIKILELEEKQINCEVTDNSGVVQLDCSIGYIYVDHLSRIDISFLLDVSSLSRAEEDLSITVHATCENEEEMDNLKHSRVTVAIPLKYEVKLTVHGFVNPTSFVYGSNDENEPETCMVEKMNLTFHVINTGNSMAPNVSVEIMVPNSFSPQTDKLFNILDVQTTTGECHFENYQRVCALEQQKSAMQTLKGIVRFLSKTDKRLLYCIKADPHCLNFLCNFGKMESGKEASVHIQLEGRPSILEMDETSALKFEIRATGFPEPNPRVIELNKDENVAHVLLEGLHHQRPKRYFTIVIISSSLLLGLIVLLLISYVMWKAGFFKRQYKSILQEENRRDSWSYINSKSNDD
T3 sequence (P05556 21-798, chain 2 of 2): as the sequence (P05556 21-798, chain 2 of 2) above

[6] = target: T3, α4β1 integrin on J6.77 Jurkat cells; assay: cell-based or functional assay; remark: listed apart in the source
Macaque α5β1 = target: T4, Macaque α5β1 (Macaque); assay: FACS on macaque PBMC, 1 mM Mn2+
T4 construct: whole, on cells; macaque species not specified; also called monkey α5β1; monkey integrin
Method: To determine whether the antibodies cross reacted to monkey integrin, binding to purified Macaque T-cells was assessed. Macaque PBMCs were previously purified from whole blood, and stored frozen. Macaque PBMCs were suspended in adhesion buffer with HBSS 1% BSA and 1 mM Mn2+ (“FACS buffer”), at a concentration of 4.8×10⁵ live cells per ml. 12.5 uL of the primary antibody was added to 37.5 ul of cells, and incubated at 4° C. for 1 hour. Positive and negative controls were included as indicated. 100 uL of FACs buffer is added to dilute out primary antibody, the cells washed and resuspended in the appropriate secondary at 2 ug/mL (50 uL) with 10 ug/mL 7AAD, and stained on ice for 7 minutes. 100 uL of FACs buffer was added and cells were washed twice in FACS buffer, finally the supernatant removed and the cells were resuspended in 100 uL of buffer.
Samples were read on HTS FACS machine and analyzed using Cell Quest Pro software. The data shown in Table 7 confirm that the antibodies cross react with monkey α5β1.

mouse α5β1 integrin = target: T5, mouse α5β1 integrin (mouse, UniProt P11688 45-999; P09055 21-728, limits assumed); assay: not described
T5 construct: printed only as mouse integrin / murine integrin; also called mouse integrin; murine integrin
T5 sequence (P11688 45-999 limits assumed, chain 1 of 2): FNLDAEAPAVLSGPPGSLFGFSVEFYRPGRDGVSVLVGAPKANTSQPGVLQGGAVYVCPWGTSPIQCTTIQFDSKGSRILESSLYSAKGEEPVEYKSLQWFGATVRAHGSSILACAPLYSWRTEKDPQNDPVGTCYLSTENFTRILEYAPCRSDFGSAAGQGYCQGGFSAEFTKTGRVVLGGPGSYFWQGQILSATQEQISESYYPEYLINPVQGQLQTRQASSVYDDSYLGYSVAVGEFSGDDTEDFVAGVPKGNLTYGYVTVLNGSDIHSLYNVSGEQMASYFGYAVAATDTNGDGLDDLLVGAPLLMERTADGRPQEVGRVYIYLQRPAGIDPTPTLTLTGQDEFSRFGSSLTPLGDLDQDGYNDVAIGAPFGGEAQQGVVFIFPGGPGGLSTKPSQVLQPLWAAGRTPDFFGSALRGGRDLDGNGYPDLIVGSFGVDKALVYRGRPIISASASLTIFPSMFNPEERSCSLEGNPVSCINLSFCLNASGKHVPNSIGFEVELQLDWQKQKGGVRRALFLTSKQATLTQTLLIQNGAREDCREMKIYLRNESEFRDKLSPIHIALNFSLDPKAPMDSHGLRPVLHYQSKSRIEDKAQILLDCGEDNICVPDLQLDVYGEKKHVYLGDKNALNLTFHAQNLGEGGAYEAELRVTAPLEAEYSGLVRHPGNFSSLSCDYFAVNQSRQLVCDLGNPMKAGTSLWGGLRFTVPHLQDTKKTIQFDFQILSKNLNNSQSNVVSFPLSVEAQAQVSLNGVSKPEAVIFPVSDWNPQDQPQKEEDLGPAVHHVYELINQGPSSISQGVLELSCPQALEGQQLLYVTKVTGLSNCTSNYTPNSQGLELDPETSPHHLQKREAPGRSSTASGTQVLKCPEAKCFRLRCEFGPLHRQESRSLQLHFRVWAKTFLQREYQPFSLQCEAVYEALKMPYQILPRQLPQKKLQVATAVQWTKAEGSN
T5 sequence (P09055 21-728 limits assumed, chain 2 of 2): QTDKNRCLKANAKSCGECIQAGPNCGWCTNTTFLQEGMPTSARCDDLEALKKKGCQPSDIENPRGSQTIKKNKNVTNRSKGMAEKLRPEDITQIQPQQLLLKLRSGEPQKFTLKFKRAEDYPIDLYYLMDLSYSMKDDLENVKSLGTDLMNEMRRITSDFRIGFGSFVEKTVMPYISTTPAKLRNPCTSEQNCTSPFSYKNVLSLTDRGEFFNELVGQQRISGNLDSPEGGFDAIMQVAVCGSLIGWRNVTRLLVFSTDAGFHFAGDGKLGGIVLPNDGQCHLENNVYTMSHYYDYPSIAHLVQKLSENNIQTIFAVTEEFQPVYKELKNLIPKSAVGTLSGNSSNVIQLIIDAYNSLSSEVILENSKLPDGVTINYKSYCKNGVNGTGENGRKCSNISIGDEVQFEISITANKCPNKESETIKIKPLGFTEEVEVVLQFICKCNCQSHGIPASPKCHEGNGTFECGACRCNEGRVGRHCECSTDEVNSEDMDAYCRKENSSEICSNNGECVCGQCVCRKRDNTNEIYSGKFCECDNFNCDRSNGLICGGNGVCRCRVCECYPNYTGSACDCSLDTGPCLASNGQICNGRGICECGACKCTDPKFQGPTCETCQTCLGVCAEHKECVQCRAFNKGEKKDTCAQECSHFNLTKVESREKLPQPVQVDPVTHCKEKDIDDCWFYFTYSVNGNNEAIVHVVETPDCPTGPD

T1 sequence (P05556 21-798): as the sequence (P05556 21-798, chain 2 of 2) above

Binding Geomean [1]	binding result [1]	% Inhibition of cell adhesion n = 1 (K562 on full length FN) (human α5β1 integrin [2])	% Inhibition of cell adhesion n = 2 (K562 on full length FN) (human α5β1 integrin [2])	% Inhibition of cell adhesion n = 3 (K562 on GST-FNIII(9-10), no pre-incubation) (human α5β1 integrin [2])	% Inhibition of cell adhesion n = 4 (K562 on GST-FNIII(9-10), supernatant 1 in 10) (human α5β1 integrin [2])	% Inhibition of cell adhesion n = 5 (K562 on GST-FNIII(9-10), supernatant 1 in 10) (human α5β1 integrin [2])	Kd (human α5β1 integrin [3])	IC50 ng/mL (K562 adhesion to GST-FNIII(9-10)) (human α5β1 integrin [4])	Average % inhibition at 5 ug/ml (J6 adhesion to GST-CS-1) [5]	% Inhibition of adhesion CS1 n = 1 (J6.77 Jurkat on GST-CS-1) [6]	% Inhibition of adhesion CS1 n = 2 (J6.77 Jurkat on GST-CS-1) [6]	Geo Mean on Macaque T-cells IgG detection (Macaque α5β1)	binding result (mouse α5β1 integrin)	Binder
4.62	no binding	96%	98%	90%	97%	102%	0.0347 nM	28.4 ng/mL	-9%	27%	-15%	12	–	5B11 (antibody, IgG2, V domains shown, also called MAb 5B11; mAb 5B11) VH: QVQLVESGGGVVQPGRSVRLSCAASGFTFSSYGMHWVRQTPGKGLEWVAIIWYDGGIEYYADSVKGRFTISRDNSKNTLYLQMNSLRAEDTAVYYCARDHRYGSSWFDYWGQGTLVTVSS VL: DIQMTQSPSSLSASVGDRVTITCRASQGINNYLAWFQQKPGKAPKSLIYAASSLQSGVPSNFSGSGSGTDFTLSISSLQPEDFATYYCQQYKSYPLTFGGGTKVEIR
4.04	no binding	97%	96%	99%	97%	104%	0.0147 nM	12.4 ng/mL	0%	24%	-4%	16	no binding	3C5 (antibody, IgG2, V domains shown, also called MAb 3C5; mAb 3C5) VH: RVQLQESGPGLVKPSQTLSLTCTVSGGSIISGGYFWTWIRQHPGKGLEWIGYIYYSGSTYYSPSLKSRVTISVDTSKNQFSLKLSSVTAADTAVYYCTRAVPAAKGYYSYYGMDVWGQGTTVTVSS VL: DIVMTQSPLSLPVTPGEPASISCRSSQSLLHSSGYNYLDWFLQKPGQSPQLLIYLSSNRASGVPDRFSGSGSGTDFTLKISRVEAEDVGVYYCMQALQTPFTFGPGTKVDIK
